# Reference: patent US11124785B2, “Rothia subtilisins, S8A family proteases, as therapeutic enzymes for application in gluten intolerance disorders” (TRUSTEES OF BOSTON UNIVERSITY, priority 2016, dated 2021)
# B1: BAV86562.1: Rothia aeria protein annotated glycerol-3-phosphate ABC transporter, belongs to the subtilisin family (peptidase S8) (protein, listed as Rothia aeria)
# chain: MAITAGLPATAAPAGDPDTPVAQDIARNSREHAVLSDSMKKAEGNIPVFVQFKGKGAYEQTQSPAVLANKQAPTNKQAEVQAIKTQVQSQAQAAAQSTGAKTLYTTHNIMRGVALQGDAAQIRALANNPEVERITPIVPKKKQNAGSVVDTGAAENWARENSGYTGKDVKIAVVDSGIDYTHADFGGPGTVEAFNKATKLTEMPAADSGLYDAKKYIGGYDLVGDSYDGTNQTAPDNNPIDCSAGGHGTHVAGTAAGYGVNQDGTTFRGDYSKLTAEQLNQMKIGPGAAPEAQLYSFRVFGCTGTTGVVVQALDRTLDPNGDGDFSDRANIVNLSIGGEFSPPDDADAYAVESLNRQGVLAVVSAGNATDYYGRGDTYSDSGQPANAVSALTVANSIGSSYAVDSMEIQAPANVAGKVPGDYTVSYTYTGAKPEALTGTVVTPSESNKFGCEAFSAEDAAKIKDKWVFLEWANADGSLPCGSKVRFDNVEKAGGKGVVLSSEEEKPALPIGGNESIPGFRVAKSASAKVREAAANGELKVRLGTDLKESLRVPSNKKDQLTASSARGYHGTYGYTKPDVAAPGNNISSARVGTGTDGISYTGTSMSAPFAAGVAAQVLQANQSYGPTQLKAAIMNSANHDVRTADGNVYAVDRVGSGRIDAKAAAETKVLLYNADRPAQVSQTFGVLEYAVNEGKQTLTREMTVENFDSHTHTYNISYAGSTDMPGVEFSLPSNITVNPGEKKNFTVTITIDPAAMEKTMDPAMEKTHNSVDPYGDGTELVPEQYRQFIASESGRILLTEGAATLRAPIHAAPKPASAMKVEGSSVEIPAGEHQANLKLTGTELNQRGYKSLLGAFEHGASIERTSPVKLDVSSNAKANMQHVGAASTAPALKASGGNPNDGLLAFGISTWANWDVVSTENTFTVNIDTDGNNRADYMLVTDRAKGIDFPIVRLYGYKNGNLEQIAYYPLNNAWGDTDTNMMDSNALVMAVPLKDLGLSAEKTKDIKYSVSATTQYAWTNVSETGWINYRPFDPKLWFSGTAATVPGFFADAPSSELVAHRAEGATDVKALFLHMHNTTGDLSGLNGAAGNRAQVLEVTEQQQLDPAPSRFTDVPAENQFYAEINWLAQRRITTGYPDGTFRPGENVERGAMAAYFYRLAGTPQFTAPDNPTFSDVPKSHPFYKEIEWMAARGITTGYGDGTFRPSASVNRDAMAAFFYRYANSPQFAAPAASPFKDVPANSQFYKEIAWLAEQGITKGWDDGTYRPGEPIHRDAMAAFLYRYSDKVLK
# B2: Eglin C: an effective inhibitor of B. licheniformis subtilisin A (protein)
# chain: TEFGSELKSFPEVVGKTVDQAREYFTLHYPQYDVYFLPEGSPVTLDLRYNRVRVFYNPGTNVVNHVPHVG
# B3: KGJ00122.1: peptidase S8, subtilisin from Rothia dentocariosa (protein, listed as Rothia dentocariosa)
# chain: MPKNTPIRGLSRACLSATLGVTMAITAGLPATAAPAGDPDTPVAQDIARNSREHAVLSDSMKKAEGNIPVFVQFKGKGAYEQTQSPAVLANKQAPINKQAEVQAIKTQVQSQAQAAAQSTGAKTLYTTHNIMRGVALQGDAAQIRALANNPEVERITPIVPKKKQNAGSVVDTGAAENWARENSGYTGKDVKIAVVDSGIDYTHSDFGGPGTVEAFNKATKLTEMPAADSGLYDAKKYIGGYDLVGDSYDGTNQTTPDNNPIDCSAGGHGTHVAGTAAGYGVNQDGTTFRGDYSKLTAEQLNQMKIGPGAAPEAQLYSFRVFGCTGTTAVVVQALDRTLDPNGDGDFSDRANIVNLSIGGEFSPPDDADAYAVESLNRQGVLAVVSAGNATDYYGRGDTYSDSGQPANAVSALTVANSIGSSYAVDSMEIQAPANVAGKVPGDYTVSYTYTGAKPEALTGTVVTPSESNKFGCEAFSAEDAAKIKDKWVFIEWANADGSLPCGSKVRFDNVEKAGGKGVVLSSEEEKPALPIGGNESIPGFRVAKSASAKVREAAATGELKVRLGADLKESLRVPSNKKDQLTASSARGYHGTYGYTKPDVAAPGNNISSARVGTGTGGISYTGTSMSAPFAAGVAAQVLQANQSYGPTQLKAAIMNSANHDVRTADGNVYAVDRVGSGRIDAKAAAETKVLLYNADRPAQVSQTFGVLEYAVNEGKQTLTREMTVENFDSHTHTYNISYAGSTDMPGVEFSLPSNITVNPGEKKNFTVTITIDPAAMEKTMDPAMEKTHNSVDPYGDGTELVPEQYRQFIASESGRILLTEGAATLRAPIHAAPKPASAMKVEGSSVEIPAGEHQANLKLTGTELNQRGYKSLLGAFEHGASIERTSPVKLDVSSNAKANMQHVGAASTAPALKASGGNPNDGLLAFGISTWANWDVVSTENTFTVNIDTDGNNRADYMLVTDRAKGIDFPIVRLYGYKNGNLEQIAYYPLNNAWGDTDTNMMDSNALVMAVPLKDLGLSAEKTKDIKYSVSATTQYAWTNVSETGWINYRPFDPKLWFSGTAATVPGFFADAPSSELVAHRAEGATDVKALFLHMHNTTGDLSGLNGAAGNRAQVLEVTEQQQLDPAPSRFTDVPAENQFYAEINWLAQRRITTGYPDGTFRPGENVERGAMAAYFYRLAGTPQFTAPDNPTFSDVPKSHPFYKEIEWMAARGITTGYGDGTFRPSDSVNRDAMAAFFYRYANSPQFAAPAASPFKDVPANSQFYKEIAWLAEQGITKGWDDGTYRPGEPIHRDAMAAFLYRYSDKVLK
# Assays:
# [1] = literature reference; cited from earlier work
# subtilisin A = biological target: T1, subtilisin A (Bacillus licheniformis, UniProt P00780); assay: Inhibition of subtilisin A by Eglin C; format: biochemical; conditions: Eglin C 1.2 μM; Suc-AAPF-pNA
# T1 construct: purchased Sigma
# T1 sequence (P00780 106-379): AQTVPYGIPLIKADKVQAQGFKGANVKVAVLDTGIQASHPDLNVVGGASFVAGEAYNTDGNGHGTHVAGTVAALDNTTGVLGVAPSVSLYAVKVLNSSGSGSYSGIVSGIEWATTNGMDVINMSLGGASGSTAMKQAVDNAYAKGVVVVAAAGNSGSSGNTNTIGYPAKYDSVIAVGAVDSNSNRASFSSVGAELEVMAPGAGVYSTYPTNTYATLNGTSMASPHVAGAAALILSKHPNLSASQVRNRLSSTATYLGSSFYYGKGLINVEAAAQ
# Protocol: (§1) Hydrolysis of paranitroanilide-derivatized substrates—Paranitroanilide (pNA)-derivatized tripeptide substrates were chemically synthesized at >90% purity (21st Century Biochemicals, Marlborough, Mass.). The substrates obtained were Z-YPQ-pNA, Z-QQP-pNA, Z-LPY-pNA, Z-PFP-pNA, Z-PPF-pNA, where Z=benzyloxycarbonyl, Y=tyrosine, P=proline, Q=glutamine, L=leucine, and F=phenylalanine Suc-AAPF-pNA (SEQ ID NO: 4) was obtained from Sigma, where Suc=N-succinyl and A=alanine. The peptides were dissolved in 75-100% DMSO at 10 mM, and were used at a final concentration of 200 μM in 50 mM TrisHCl pH 8.0. Purified Rothia enzyme or subtilisin A from Bacillus licheniformis (Sigma) were tested at final concentrations of 1 μg/ml. Some experiments were conducted in the presence of inhibitors 4-(2-Aminoethyl) benzenesulfonyl fluoride (AEBSF), Aprotinin, E-64, EDTA, phenylmethanesulfonyl fluoride (PMSF) and Eglin C, which were tested at final concentrations of 10 mM, 0.08 mM, 0.1 mM, 1.5 mM, 1 mM, and 0.06-1.2 μM, respectively. Enzymes were preincubated with the inhibitors for 20 min before adding Suc-AAPF-pNA (SEQ ID NO: 4). Substrate hydrolysis was monitored for 10 h at 405 nm using a Genios microtiter plate reader (Tecan, Männedorf, Switzerland) in the kinetic mode at 37° C.
# [2] = test system: R. mucilaginosa enzyme preparation (Rmep); assay: Inhibitor profile of Rmep (Suc-AAPF-pNA hydrolysis); format: biochemical, Rothia mucilaginosa; conditions: Eglin C 1.2 μM; Suc-AAPF-pNA
# Protocol: Inhibitors AEBSF, Aprotinin, E-64, EDTA, PMSF and Eglin C were tested at final concentrations of 10 mM, 0.08 mM, 0.1 mM, 1.5 mM, 1 mM, and 0.06 μM, respectively. Rmep was added at a final concentration of 5.7 μg/ml. The percent inhibition was determined from the ratio of the initial velocities of hydrolysis of Suc-AAPF-pNA (SEQ ID NO: 4) in the absence and presence of inhibitor.
# as §1
# casein = assay: Casein zymography of R. aeria cell proteins; format: biochemical; conditions: excised bands 1-4, R. aeria cells, 1% casein
# Protocol: Bands 1-4 were excised and subjected to mass spectrometric analysis of the amino acid sequences and identification of the protein. The protein was identified as BAV86562.1 from Rothia aeria.
# SDS-PAGE and casein zymography—The four cell pellets were resuspended each in 200 μl zymogram sample buffer^2. To separate the proteins, the samples were applied to a non-reducing (no DTT or β-mercaptoethanol-containing) 6% SDS-PAGE gel of 16 cm×20 cm×0.15 cm, using a protean II xi cell system (Bio-Rad, Hercules, Calif.). The composition of this gel was the same as that of previously published 6% gliadin zymogram gels but without incorporation of gliadin^2. After electrophoresis at a constant voltage of 120V at 4° C., the gel was divided in two halves (“A-gel” and “B-gel”). One-half (“A-gel”) was stained with 0.1% Coomassie Brilliant Blue in 40% (v/v) methanol/10% (v/v) acetic acid. The other half (“B-gel”) was developed as a zymogram gel^3. (See FIGS. 12A and 12B). For this, the B-gel was washed twice for 30 min in buffer containing 2.5% Triton X-100 (renaturing buffer; Life Technologies, Carlsbad, Calif.), followed by washing twice for 1 h in buffer containing 20 mM Tris-HCl, pH 7.5 (developing buffer; Life Technologies, Carlsbad, Calif.). The B-gel was then incubated in developing buffer supplemented with 1% casein (Sigma, St. Louis, Mo.) at 37° C. for 1.5 h. […]
molecule,measurement,setting,value
B1,pH values down to which activity is retained,[1],≥ 3.0
B2,inhibition of B. licheniformis subtilisin A by Eglin C,subtilisin A,effective inhibitor
same,inhibition of Rmep by high concentrations of Eglin C,[2],only partly inhibited
B3,activity in the casein degradation assay (zymogram),casein,gluten-degrading properties
